Assay [1] addresses ap JFcα (mallard duck IgA heavy chain Cα2-Cα3-Cα4-Tp co-expressed with joining chain) (Anas platyrhynchos (mallard duck)). Briefly: SPR.
Assay [2] deals with mm JFcα (mouse IgA heavy chain and joining chain) (Mus musculus (house mouse)). Kind of assay: SPR. (In general: SPR reads the build-up and loss of mass on a sensor chip optically.)

“ap SC D1_(ΔN-ext.)-D2-D3-D4 (mallard duck SC without the SC N-terminal extension) (domain or fragment)” returned a maximum response against concentration-matched ap SC wt in assay [1] of 20 % lower.
In turn, “mm SC D1 (mouse SC D1 only) (domain or fragment)” came in with an SPR response in assay [1] of 7 RU.
“mm SC D1_((+)N-ext.) (mouse SC D1 with the mallard duck SC N-terminal extension)” displayed a maximum response at 64 nM against the non-chimeric variant in assay [2] of 93 % higher.
Substance “hs SC D1-D3-D4-D5 (human SC with D2 deletion) (from UniProt P01833 19-638) (domain or fragment)” returned an SPR response in assay [1] of 34 RU.
As for “hs SC D1 (human SC D1 only) (domain or fragment)”, in assay [1], the SPR response amounted to 29 RU.
On the same count and under the same terms, next, “mm SC D1-D3-D4-D5 (mouse SC with D2 deletion) (from UniProt O70570 19-585) (domain or fragment)”: 1 RU.

The values above are taken from publication doi:10.1101/2025.09.19.677352.
